B1: GA-binding protein subunit beta-1 (Homo sapiens), Q06547-2 (parent)
chain: MSLVDLGKKLLEAARAGQDDEVRILMANGAPFTTDWLGTSPLHLAAQYGHYSTTEVLLRAGVSRDARTKVDRTPLHMAASEGHASIVEVLLKHGADVNAKDMLKMTALHWATEHNHQEVVELLIKYGADVHTQSKFCKTAFDISIDNGNEDLAEILQIAMQNQINTNPESPDTVTIHAATPQFIIGPGGVVNLTDETGVSAVQFGNSSTSVLATLAALAEASAPLSNSSETPVVATEEVVTAESVDGAIQQVVSSGGQQVITIVTDGIQLGNLHSIPTSGIGQPIIVTMPDGQQVLTVPATDIAEETVISEEPPAKRQCIEIIENRVESAEIEEREALQKQLDEANREAQKYRQQLLKKEQEAEAYRQKLEAMTRLQTNKEAV

Variants of: B1
Conditions: with hcfc1_human HCFC1, P51610
hcfc1_human HCFC1, P51610, sequence (P51610 whole entry): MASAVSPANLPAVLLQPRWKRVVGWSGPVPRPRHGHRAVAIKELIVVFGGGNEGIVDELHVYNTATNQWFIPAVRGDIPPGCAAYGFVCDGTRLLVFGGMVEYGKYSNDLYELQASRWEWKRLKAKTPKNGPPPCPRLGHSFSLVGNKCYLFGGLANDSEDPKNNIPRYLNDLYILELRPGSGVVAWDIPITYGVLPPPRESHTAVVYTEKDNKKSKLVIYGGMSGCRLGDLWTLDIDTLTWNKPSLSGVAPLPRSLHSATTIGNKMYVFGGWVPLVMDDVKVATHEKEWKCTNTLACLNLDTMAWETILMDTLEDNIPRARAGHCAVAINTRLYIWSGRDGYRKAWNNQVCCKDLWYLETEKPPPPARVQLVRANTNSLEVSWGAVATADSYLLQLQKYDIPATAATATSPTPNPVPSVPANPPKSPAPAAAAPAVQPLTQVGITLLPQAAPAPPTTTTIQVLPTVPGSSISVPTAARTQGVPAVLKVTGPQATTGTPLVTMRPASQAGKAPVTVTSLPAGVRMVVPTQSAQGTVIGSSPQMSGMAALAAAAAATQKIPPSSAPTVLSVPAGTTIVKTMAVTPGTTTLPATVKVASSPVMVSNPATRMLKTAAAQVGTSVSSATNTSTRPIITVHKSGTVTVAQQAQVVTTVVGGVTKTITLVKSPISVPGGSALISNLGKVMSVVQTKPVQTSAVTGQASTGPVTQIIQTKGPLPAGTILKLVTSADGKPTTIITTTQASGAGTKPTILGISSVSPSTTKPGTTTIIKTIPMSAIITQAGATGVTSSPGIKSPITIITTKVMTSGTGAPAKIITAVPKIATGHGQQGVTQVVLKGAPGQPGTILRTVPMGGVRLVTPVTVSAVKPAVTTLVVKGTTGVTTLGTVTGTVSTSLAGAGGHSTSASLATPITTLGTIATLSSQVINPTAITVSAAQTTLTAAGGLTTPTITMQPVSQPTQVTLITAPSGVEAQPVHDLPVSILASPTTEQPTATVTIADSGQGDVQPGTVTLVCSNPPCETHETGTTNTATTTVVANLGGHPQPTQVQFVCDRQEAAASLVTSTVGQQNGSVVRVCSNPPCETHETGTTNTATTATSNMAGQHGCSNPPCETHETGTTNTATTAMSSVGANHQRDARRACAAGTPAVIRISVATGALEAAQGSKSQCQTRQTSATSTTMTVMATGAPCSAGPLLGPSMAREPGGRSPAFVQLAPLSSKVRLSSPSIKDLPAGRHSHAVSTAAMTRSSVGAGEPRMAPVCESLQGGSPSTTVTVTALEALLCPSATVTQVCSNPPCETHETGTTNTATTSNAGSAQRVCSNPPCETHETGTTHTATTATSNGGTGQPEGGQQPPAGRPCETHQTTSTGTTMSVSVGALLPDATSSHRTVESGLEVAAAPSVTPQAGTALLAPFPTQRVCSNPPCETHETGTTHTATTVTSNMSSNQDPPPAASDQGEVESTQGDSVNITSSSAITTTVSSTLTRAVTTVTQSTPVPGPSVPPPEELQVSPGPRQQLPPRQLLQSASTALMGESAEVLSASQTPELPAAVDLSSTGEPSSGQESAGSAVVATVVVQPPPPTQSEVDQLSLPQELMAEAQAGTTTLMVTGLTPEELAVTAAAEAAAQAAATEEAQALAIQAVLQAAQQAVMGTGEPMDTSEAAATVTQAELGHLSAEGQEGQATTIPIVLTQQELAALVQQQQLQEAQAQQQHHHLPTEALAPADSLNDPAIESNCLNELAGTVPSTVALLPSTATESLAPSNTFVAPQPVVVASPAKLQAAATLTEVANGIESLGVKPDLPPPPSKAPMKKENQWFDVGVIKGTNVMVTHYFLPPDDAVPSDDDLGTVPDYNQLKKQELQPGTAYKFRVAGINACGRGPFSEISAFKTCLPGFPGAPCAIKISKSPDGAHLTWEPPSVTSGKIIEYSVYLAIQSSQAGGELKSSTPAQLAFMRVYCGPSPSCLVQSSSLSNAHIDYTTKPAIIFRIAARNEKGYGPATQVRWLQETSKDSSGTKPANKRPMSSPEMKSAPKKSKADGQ

effect of a mutation on the interaction | Variant
decreasing interaction | MSLVDLGKKLLEAARAGQDDEVRILMANGAPFTTDWLGTSPLHLAAQYGHYSTTEVLLRAGVSRDARTKVDRTPLHMAASEGHASIVEVLLKHGADVNAKDMLKMTALHWATEHNHQEVVELLIKYGADVHTQSKFCKTAFDISIDNGNEDLAEILQIAMQNQINTNPESPDTVTIHAATPQFIIGPGGVVNLTDETGVSAVQFGNSSTSVLATLAALAEASAPLSNSSETPVVATEEVVTAESVDGAIQQVVSSGGQQVITIVTDGIQLGNLHSIPTSGIGQPIIVTMPDGQQALTAPATDIAEETVISEEPPAKRQCIEIIENRVESAEIEEREALQKQLDEANREAQKYRQQLLKKEQEAEAYRQKLEAMTRLQTNKEAV [V295A;V298A]
decreasing interaction | MSLVDLGKKLLEAARAGQDDEVRILMANGAPFTTDWLGTSPLHLAAQYGHYSTTEVLLRAGVSRDARTKVDRTPLHMAASEGHASIVEVLLKHGADVNAKDMLKMTALHWATEHNHQEVVELLIKYGADVHTQSKFCKTAFDISIDNGNEDLAEILQIAMQNQINTNPESPDTVTIHAATPQFIIGPGGVVNLTDETGVSAVQFGNSSTSVLATLAALAEASAPLSNSSETPVVATEEVVTAESVDGAIQQAASSGGQQVITIVTDGIQLGNLHSIPTSGIGQPIIVTMPDGQQVLTVPATDIAEETVISEEPPAKRQCIEIIENRVESAEIEEREALQKQLDEANREAQKYRQQLLKKEQEAEAYRQKLEAMTRLQTNKEAV [V252A;V253A]
